Experimental data from patent US20110189209A1 (GOVERNMENT OF THE UNITED STATES OF AMERICA AS REPRESENTED …, published 2011).

Columns and labels:
[1] = target: human CD3 on Jurkat cells (human) (UniProt P07766); test: competitive binding on Jurkat cells, competitor at 1 nM, tracer 125I-UCHT1
[2] = target: human CD3 on Jurkat cells (human) (UniProt P07766); test: competitive binding on Jurkat cells, competitor at 100 nM, tracer 125I-UCHT1
[3] = target: T1, monkey CD3 on HSC-F monkey T cells (cynomolgus monkey, UniProt Q95LI5 22-198); test: competition with FN18-FITC on HSC-F cells, flow cytometry, replicate assays
T1 construct: whole, on cells; also called monkey CD3ε

[4] = target: T1, monkey CD3 on HSC-F monkey T cells; test: competition with FITC-labeled FN18 tracer (5x10^-9 M) for binding to HSC-F monkey T cells, flow cytometry, 4 C

T1 sequence (Q95LI5 22-198): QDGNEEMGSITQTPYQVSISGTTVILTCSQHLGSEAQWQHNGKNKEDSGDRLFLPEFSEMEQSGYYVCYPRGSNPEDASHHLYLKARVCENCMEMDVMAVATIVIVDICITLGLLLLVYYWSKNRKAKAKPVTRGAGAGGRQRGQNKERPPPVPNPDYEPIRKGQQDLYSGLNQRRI

UCHT1 (antibody)
% of 125I-UCHT1 bound to Jurkat cells [1]: 80% | % of 125I-UCHT1 bound to Jurkat cells [2]: 0%

scUCHT1 (from UniProt P01871 106-453) (Fc fusion)
% of 125I-UCHT1 bound to Jurkat cells [1]: 80% | % of 125I-UCHT1 bound to Jurkat cells [2]: 0%

B1: biscFv(C207) (other)
chain: DFVMSQSPSSLAVSVGERVTMSCKSSQSLLYFSNRKNYLAWYQQKPGQSPKLLINWASTRESGVPDRFTGSGSRTDFTLTISSVKAEDLAVYFCQQFYSYPPTFGGGTKLEIKGGGGSGGGGSGGGGSQVQLQQSEAELARPGASVKMSCKASGYTFTDYTIHWLRQKPGQGLDWIGYFNPSSGSTEYNRKFKDRTILTADRSSTTVYMQLSSLTSEDSAVYYCARKGEKLLGNRYWYFDVWGAGTSVTVSSGGGGSGGGGSGGGGSDFVMSQSPSSLAVSVGERVTMSCKSSQSLLYFSNRKNYLAWYQQKPGQSPKLLINWASTRESGVPDRFTGSGSRTDFTLTISSVKAEDLAVYFCQQFYSYPPTFGGGTKLEIKGGGGSGGGGSGGGGSQVQLQQSEAELARPGASVKMSCKASGYTFTDYTIHWLRQKPGQGLDWIGYFNPSSGSTEYNRKFKDRTILTADRSSTTVYMQLSSLTSEDSAVYYCARKGEKLLGNRYWYFDVWGAGTSVTVSS
ratio of concentrations at equal displacement, biscFv(C207)/scFv(C207) [3]: 2.5 fold

B2: scFv(C207) (scFv)
scFv: DFVMSQSPSSLAVSVGERVTMSCKSSQSLLYFSNRKNYLAWYQQKPGQSPKLLINWASTRESGVPDRFTGSGSRTDFTLTISSVKAEDLAVYFCQQFYSYPPTFGGGTKLEIKGGGGSGGGGSGGGGSQVQLQQSEAELARPGASVKMSCKASGYTFTDYTIHWLRQKPGQGLDWIGYFNPSSGSTEYNRKFKDRTILTADRSSTTVYMQLSSLTSEDSAVYYCARKGEKLLGNRYWYFDVWGAGTSVTVSS
IC50 (read off the curve) [4]: ~2 nM

B3: Db(C207) (other)
chain: DFVMSQSPSSLAVSVGERVTMSCKSSQSLLYFSNRKNYLAWYQQKPGQSPKLLINWASTRESGVPDRFTGSGSRTDFTLTISSVKAEDLAVYFCQQFYSYPPTFGGGTKLEIKGGGGSQVQLQQSEAELARPGASVKMSCKASGYTFTDYTIHWLRQKPGQGLDWIGYFNPSSGSTEYNRKFKDRTILTADRSSTTVYMQLSSLTSEDSAVYYCARKGEKLLGNRYWYFDVWGAGTSVTVSS
notes: also called diabody of C207; diabody (C207)
ratio of concentrations at equal displacement, Db(C207)/scFv(C207) [3]: 7 fold
